The results in this text go back to publication PMC5712553, “A Novel TetR Family Transcriptional Regulator, CalR3, Negatively Controls Calcimycin Biosynthesis in Streptomyces chartreusis NRRL 3882”.

Data set [1] has as its target T1, CalR3 (Streptomyces chartreusis NRRL 3882) (UniProt F8QZR9).
T1 sequence: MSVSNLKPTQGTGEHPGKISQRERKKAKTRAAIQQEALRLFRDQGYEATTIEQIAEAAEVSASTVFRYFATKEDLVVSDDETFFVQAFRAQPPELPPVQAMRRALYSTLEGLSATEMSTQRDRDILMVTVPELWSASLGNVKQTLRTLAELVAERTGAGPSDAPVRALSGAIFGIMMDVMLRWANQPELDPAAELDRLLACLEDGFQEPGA
The experiment in a line: EMSA. Particulars: EMSA: 20 mM Tris-Cl pH 8.0, 100 mM KCl, 10 mM DTT, 37 C, 30 min, 20 ul, footprinting: 25 C, 500 ng probe in 40 ul. A general note: Mobility shift assays separate free from complexed probe on a gel.

Data set [2] addresses T2, CalR3 (Streptomyces chartreusis NRRL 3882, UniProt F8QZR9 1-211).
T2 sequence: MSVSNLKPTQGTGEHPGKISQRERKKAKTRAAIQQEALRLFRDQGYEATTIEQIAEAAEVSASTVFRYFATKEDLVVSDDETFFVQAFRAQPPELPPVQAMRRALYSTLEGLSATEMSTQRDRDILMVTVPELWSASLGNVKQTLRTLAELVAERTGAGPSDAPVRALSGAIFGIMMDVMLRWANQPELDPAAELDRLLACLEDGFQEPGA
The experiment in a line: EMSA; 1.5 uM probe, 0.8 uM CalR3; EMSA: 20 mM Tris-Cl pH 8.0, 100 mM KCl, 10 mM DTT, 37 C, 30 min, 20 ul; footprinting: 25 C, 30 min, 500 ng probe in 40 ul. Particulars: protein: recombinant; tags: N-terminal His6 (pET28a); chain copies: 2.

The target of data set [3] is T2, CalR3. The experiment in a line: EMSA; 1.5 uM probe, 0.8 uM CalR3; two shifted bands; EMSA: 20 mM Tris-Cl pH 8.0, 100 mM KCl, 10 mM DTT, 37 C, 30 min, 20 ul; footprinting: 25 C, 30 min, 500 ng probe in 40 ul. The settings on record: protein: recombinant; tags: N-terminal His6 (pET28a); chain copies: 2.

As to “CCAGCCGGTAAAGAGCGAGCCTCATGACAGGCAACCTTCTTTTAGGAGTCGACTTTCAATTGATAGCCTACTAGCACTTTGAGGAGATGAGAACTCCTCCTCGCTGCCACC (double strand) [T-R3L]”, the binding entry in data set [1] is given as “binds”. For the molecule “TCCCTTGCGTCGGTTTCAGGTTGGACACGCTCATGCTCCACATTCTCCAGGCTCTCCGGCGGCCGGCCGGTCACGGCTGTGCCGCGCCCGGCCGCGTGCGGCGGTGGCAGCGAGGAGGAG (double strand) [T-R3R]”, in data set [1], the binding entry is given as “no binding”.

Take “TGACAGGCAACCTTCTTTTAGGAGTCGACTTTCAATTGATAGCCTACTAGCACTTTGAGGAGATGAGAACTCCTCCTCGCTGCCACCGCCGCACGCGGCCGGGCGCGGCACAGCCGTGACCGGCCGGCCGCCGGAGAGCCTGGAGAATGTGGAGCA (double strand) [T-R3 (calT-calR3 intergenic)]”: the binding result in data set [1] is listed as “binds”.

B1: m1 (site II palindrome mutated) (dsDNA)
DNA 1: AAGAGCGAGCCTCATGACAGGCAACCTTCTTTTAGGAGTCGAGAATTCTAGATATCCCTACTAGCACTTTGAGGAGATGA
DNA 2: TCATCTCCTCAAAGTGCTAGTAGGGATATCTAGAATTCTCGACTCCTAAAAGAAGGTTGCCTGTCATGAGGCTCGCTCTT
Turning to B1, the binding result in data set [2] was “no binding”.

B2: m1&2 (sites I and II mutated) (dsDNA)
DNA 1: AAGAGCGAGCCTCAACTGAGGCAACCTTCTTTTAGGAGTCGAGAATTCTAGATATCCCTACTAGCACTTTGAGGAGATGA
DNA 2: TCATCTCCTCAAAGTGCTAGTAGGGATATCTAGAATTCTCGACTCCTAAAAGAAGGTTGCCTCAGTTGAGGCTCGCTCTT
Take B2: the binding result in data set [2] is “no binding”.

B3: m0 (dsDNA)
DNA 1: AAGAGCGAGCCTCATGACAGGCAACCTTCTTTTAGGAGTCGACTTTCAATTGATAGCCTACTAGCACTTTGAGGAGATGA
DNA 2: TCATCTCCTCAAAGTGCTAGTAGGCTATCAATTGAAAGTCGACTCCTAAAAGAAGGTTGCCTGTCATGAGGCTCGCTCTT
On to B3, for which the binding result in data set [3] is “binds”.
